The supplement of paper PMC11316812
± gives the standard deviation of the averaged measurements.

Key:
MCF7 = experiment: percentage of EdU-negative (G0-arrested) nuclei per well, 72 h; higher = more G0 arrest; conditions: reference: sequence is the full UniProt precursor, the tested protein was the secreted form or ectodomain
hTERT-HMEC = experiment: as above; conditions: reference: sequence is the full UniProt precursor, the tested protein was the secreted form or ectodomain
[1] = protein concentration 0.0225 µM
[2] = protein concentration 0.03125 µM
[3] = protein concentration 0.3125 µM
[4] = protein concentration 0.0145714 µM
[5] = protein concentration 0.145714 µM
[6] = protein concentration 0.00828571 µM
[7] = protein concentration 0.0828571 µM
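Further: secreted proteins added to cultured cells, EdU pulse at the end, nuclei found by Hoechst imaging, EdU status from nuclear versus surrounding ring intensity ratio, PBS as neutral control.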

Sequence | percentage of EdU-negative (MCF7; [1]) [%] | percentage of EdU-negative (MCF7; protein concentration 0.225 µM) [%] | percentage of EdU-negative (hTERT-HMEC; [1]) [%] | percentage of EdU-negative (hTERT-HMEC; protein concentration 0.225 µM) [%] | further results
MQMPAMMSLLLVSVGLMEALQAQSHPITRRDLFSQEIQLDMALASFDDQYAGCAAAMTAALPDLNHTEFQANQVYADSWTLASSQWQERQARWPEWSLSPTRPSPPPLGFRDEHGVALLAYTANSPLHKEFNAAVREAGRSRAHYLHHFSFKTLHFLLTEALQLLGSGQRPPRCHQVFRGVHGLRFRPAGPRATVRLGGFASASLKHVAAQQFGEDTFFGIWTCLGAPIKGYSFFPGEEEVLIPPFETFQVINASRLAQGPARIYLRALGKHSTYNCEYIKDKKCKSGPCHLDNSAMGQSPLSAVWSLLLLLWFLVVRAFPDGPGLL | 23.7 ± 1.5 | 25 ± 0.33 | 5.126 ± 0.0053 | 6.16 ± 2.3 | 
MAGPLRAPLLLLAILAVALAVSPAAGSSPGKPPRLVGGPMDASVEEEGVRRALDFAVGEYNKASNDMYHSRALQVVRARKQIVAGVNYFLDVELGRTTCTKTQPNLDNCPFHDQPHLKRKAFCSFQIYAVPWQGTMTLSKSTCQDA |  |  |  |  | percentage of EdU-negative (MCF7; [2]): 26.2 ± 1.3%; percentage of EdU-negative (MCF7; [3]): 26.6 ± 2.9%; percentage of EdU-negative (hTERT-HMEC; [2]): 5.05 ± 0.076%; percentage of EdU-negative (hTERT-HMEC; [3]): 5.7 ± 0.21%
MVAPGLVLGLVLPLILWADRSAGIGFRFASYINNDMVLQKEPAGAVIWGFGTPGATVTVTLRQGQETIMKKVTSVKAHSDTWMVVLDPMKPGGPFEVMAQQTLEKINFTLRVHDVLFGDVWLCSGQSNMQMTVLQIFNATRELSNTAAYQSVRILSVSPIQAEQELEDLVAVDLQWSKPTSENLGHGYFKYMSAVCWLFGRHLYDTLQYPIGLIASSWGGTPIEAWSSGRSLKACGVPKQGSIPYDSVTGPSKHSVLWNAMIHPLCNMTLKGVVWYQGESNINYNTDLYNCTFPALIEDWRETFHRGSQGQTERFFPFGLVQLSSDLSKKSSDDGFPQIRWHQTADFGYVPNPKMPNTFMAVAMDLCDRDSPFGSIHPRDKQTVAYRLHLGARALAYGEKNLTFEGPLPEKIELLAHKGLLNLTYYQQIQVQKKDNKIFEISCCSDHRCKWLPASMNTVSTQSLTLAIDSCHGTVVALRYAWTTWPCEYKQCPLYHPSSALPAPPFIAFITDQGPGHQSNVAK [Q9HAT2] | 24.9 ± 0.68 | 24.8 ± 0.63 | 5.13 ± 1 | 7.82 ± 1.7 | 
MNQKTILVLLILAVITIFALVCVLLVGRGGDGGEPSQLPHCPSVSPSAQPWTHPGQSQLFADLSREELTAVMRFLTQRLGPGLVDAAQARPSDNCVFSVELQLPPKAAALAHLDRGSPPPAREALAIVFFGRQPQPNVSELVVGPLPHPSYMRDVTVERHGGPLPYHRRPVLFQEYLDIDQMIFNRELPQASGLLHHCCFYKHRGRNLVTMTTAPRGLQSGDRATWFGLYYNISGAGFFLHHVGLELLVNHKALDPARWTIQKVFYQGRYYDSLAQLEAQFEAGLVNVVLIPDNGTGGSWSLKSPVPPGPAPPLQFYPQGPRFSVQGSRVASSLWTFSFGLGAFSGPRIFDVRFQGERLVYEISLQEALAIYGGNSPAAMTTRYVDGGFGMGKYTTPLTRGVDCPYLATYVDWHFLLESQAPKTIRDAFCVFEQNQGLPLRRHHSDLYSHYFGGLAETVLVVRSMSTLLNYDYVWDTVFHPSGAIEIRFYATGYISSAFLFGATGKYGNQVSEHTLGTVHTHSAHFKVDLDVAGLENWVWAEDMVFVPMAVPWSPEHQLQRLQVTRKLLEMEEQAAFLVGSATPRYLYLASNHSNKWGHPRGYRIQMLSFAGEPLPQNSSMARGFSWERYQLAVTQRKEEEPSSSSVFNQNDPWAPTVDFSDFINNETIAGKDLVAWVTAGFLHIPHAEDIPNTVTVGNGVGFFLRPYNFFDEDPSFYSADSIYFRGDQDAGACEVNPLACLPQAAACAPDLPAFSHGGFSHN |  |  |  |  | percentage of EdU-negative (MCF7; [4]): 22.8 ± 0.3%; percentage of EdU-negative (MCF7; [5]): 26.8 ± 0.78%; percentage of EdU-negative (hTERT-HMEC; [4]): 5.32 ± 0.3%; percentage of EdU-negative (hTERT-HMEC; [5]): 6.82 ± 0.15%
MDPRLPAWALVLLGPALVFALGPAPTPEMREKLCGHHFVRALVRVCGGPRWSTEARRPATGGDRELLQWLERRHLLHGLVADSNLTLGPGLQPLPQTSHHHRHHRAAATNPARYCCLSGCTQQDLLTLCPY | 27 ± 2.5 | 26.9 ± 2.5 | 6.04 ± 0.67 | 5.1 ± 0.54 | 
MEKLLCFLVLTSLSHAFGQTDMSRKAFVFPKESDTSYVSLKAPLTKPLKAFTVCLHFYTELSSTRGYSIFSYATKRQDNEILIFWSKDIGYSFTVGGSEILFEVPEVTVAPVHICTSWESASGIVEFWVDGKPRVRKSLKKGYTVGAEASIILGQEQDSFGGNFEGSQSLVGDIGNVNMWDFVLSPDEINTIYLGGPFSPNVLNWRALKYEVQGEVFTKPQLWP |  |  |  |  | percentage of EdU-negative (MCF7; [2]): 24.1 ± 2.6%; percentage of EdU-negative (MCF7; [3]): 25.3 ± 0.79%; percentage of EdU-negative (hTERT-HMEC; [2]): 4.41 ± 0.15%; percentage of EdU-negative (hTERT-HMEC; [3]): 5.8 ± 1.1%
MRLGSPGLLFLLFSSLRADTQEKEVRAMVGSDVELSCACPEGSRFDLNDVYVYWQTSESKTVVTYHIPQNSSLENVDSRYRNRALMSPAGMLRGDFSLRLFNVTPQDEQKFHCLVLSQSLGFQEVLSVEVTLHVAANFSVPVVSAPHSPSQDELTFTCTSINGYPRPNVYWINKTDNSLLDQALQNDTVFLNMRGLYDVVSVLRIARTPSVNIGCCIENVLLQQNLTVGSQTGNDIGERDKITENPVSTGEKNAATWSILAVLCLLVVVAVAIGWVCRDRCLQHSYAGAWAVSPETELTGHV | 27.1 ± 2.8 | 25.8 ± 2.6 | 5.11 ± 0.35 | 6.86 ± 0.54 | 
MSLWQPLVLVLLVLGCCFAAPRQRQSTLVLFPGDLRTNLTDRQLAEEYLYRYGYTRVAEMRGESKSLGPALLLLQKQLSLPETGELDSATLKAMRTPRCGVPDLGRFQTFEGDLKWHHHNITYWIQNYSEDLPRAVIDDAFARAFALWSAVTPLTFTRVYSRDADIVIQFGVAEHGDGYPFDGKDGLLAHAFPPGPGIQGDAHFDDDELWSLGKGVVVPTRFGNADGAACHFPFIFEGRSYSACTTDGRSDGLPWCSTTANYDTDDRFGFCPSERLYTQDGNADGKPCQFPFIFQGQSYSACTTDGRSDGYRWCATTANYDRDKLFGFCPTRADSTVMGGNSAGELCVFPFTFLGKEYSTCTSEGRGDGRLWCATTSNFDSDKKWGFCPDQGYSLFLVAAHEFGHALGLDHSSVPEALMYPMYRFTEGPPLHKDDVNGIRHLYGPRPEPEPRPPTTTTPQPTAPPTVCPTGPPTVHPSERPTAGPTGPPSAGPTGPPTAGPSTATTVPLSPVDDACNVNIFDAIAEIGNQLYLFKDGKYWRFSEGRGSRPQGPFLIADKWPALPRKLDSVFEERLSKKLFFFSGRQVWVYTGASVLGPRRLDKLGLGADVAQVTGALRSGRGKMLLFSGRRLWRFDVKAQMVDPRSASEVDRMFPGVPLDTHDVFQYREKAYFCQDRFYWRVSSRSELNQVDQVGYVTYDILQCPED |  |  |  |  | percentage of EdU-negative (MCF7; [6]): 24.2 ± 1.4%; percentage of EdU-negative (MCF7; [7]): 24.7 ± 0.13%; percentage of EdU-negative (hTERT-HMEC; [6]): 4.71 ± 0.63%; percentage of EdU-negative (hTERT-HMEC; [7]): 6.64 ± 0.96%
